# Measurements: US20260234247A1 (published 2026)
# Molecular target: T1, human LILRB1 (human, UniProt Q8NHL6 24-458, limits assumed)
# T1 construct: also called hLILRB1
# Experiment: Octet off-rate ranking;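 further: antibody dissociation rate constants against cynomolgus LILRB2 plus human LILRB1, LILRB2, LILRA1 and LILRA2, measured on an Octet instrument to rank binding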
# Source text: Binding affinity of anti-LILRB1 and anti-LILRB2 antibodies against human LILRB1, LILRB2, LILRA1, LILRA2 and cynomolgus LILRB2 was ranked by measuring dissociation rate constant (Kdis) using the Octet system.
# T1 sequence (Q8NHL6 24-458 limits assumed): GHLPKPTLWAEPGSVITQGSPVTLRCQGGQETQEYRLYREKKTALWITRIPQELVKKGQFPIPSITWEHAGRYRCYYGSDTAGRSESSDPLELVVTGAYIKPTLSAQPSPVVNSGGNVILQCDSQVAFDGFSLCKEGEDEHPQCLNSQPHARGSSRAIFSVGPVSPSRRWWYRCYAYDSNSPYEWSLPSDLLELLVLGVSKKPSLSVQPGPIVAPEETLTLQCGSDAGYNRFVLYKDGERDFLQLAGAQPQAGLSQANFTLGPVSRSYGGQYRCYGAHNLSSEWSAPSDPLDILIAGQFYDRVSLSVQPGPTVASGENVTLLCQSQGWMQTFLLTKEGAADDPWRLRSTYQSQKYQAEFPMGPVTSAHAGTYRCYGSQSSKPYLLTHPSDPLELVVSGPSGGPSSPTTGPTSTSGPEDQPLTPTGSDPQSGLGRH
row,Binder,koff
1,"LK-RB1-29 (antibody, human IgG4 S228P, kappa, V domains shown) VH: QVQLKESGPGLVAPSQNLAITCTVSGFSLTNSGVSWVRQSPGKGLEWLGIIWGDGNTNYHSALISRLSISKDNSKSQVFLKLNSLQTDDTGTYYCAKPNWDYYALDYWGQGTSVTVSS VL: DIQMTQTASSLFASLGDRVTISCRASQDISNYLNWYQQKPDGSIKLLISYTSRLHSGVPSRFSGSGSGTDYSLSISNLEQEDIATYFCQQGISLPCTFGGGTKLEVNR",8.11e-05 s⁻¹
2,"LK-RB1-23 (antibody, human IgG4 S228P, kappa, V domains shown) VH: QVQLQQTGAELVRPGSSVKLSCKASGYTFTNYWMDWVKQRPGQGLEWIGNIHPFGNETHYNQKFKDKATLTVDKSSSTAYMQLSSLTSEDSAVYYCARGLLLYFDVWGTGTTVTVSS VL: DIQMTQSPASQSVSVGETVTITCRASENIYSNLAWYQQKQGKSPQLLVYGATNLADGVSLRFSGSGSGTQYSLKINSLQSEDFGSYYCQHFWGIPWTFGGGTKLEIKR",0.000477 s⁻¹
3,"LK-RB1-27 (antibody, human IgG4 S228P, kappa, V domains shown) VH: QVQLQQSGPELVKPGASVRMSCKASGYTFTSHYIHWMKQRPGQGLEWIGWIYPGDGHTKYHEKFKDRATLTADTSSITAYMRLSSLTSEDSAIYYCVYYSDSWFPYWGQGTLVTVSA VL: DIQMTQSPASLSVSVGETVTITCRASENIYSNLAWYQQKQGKSPHLLVYAATNLADGVPSRFSGSGSGTQYSLKINSLQSEDFGNYYCQHFWGSPWTFGGGTKLEIKR",0.000112 s⁻¹
4,"LK-RB1-28 (antibody, human IgG4 S228P, kappa, V domains shown) VH: QVQLQQSGPELVKPGTSVKMSCKASGYTFTSHYIHWMKQRPGQGLDWIGWIYPGDGHTKYHEKFKGKATLTADTSSITAYMQLSLLTSEDSAVYYCVYYSDSWFPYWGQGTLVTVSA VL: DIQMTQSPASLSVSVGETVTITCRASENIYSNLAWYQQKQGKSPQLLVYAATNLADGVPSRFSGSGSGTQYSLKINSLQSEDFGNYFCQHFWGSPWTFGGGTKLEIKR",6.28e-05 s⁻¹
5,"LK-RB1-24 (antibody, human IgG4 S228P, kappa, V domains shown) VH: QVQLQQPGAELVNPGTSVNLSCKASGYTFTGYWMHWVKQRPGQGLEWIGMIHPNNGGTIYNERFNGKATLTVDRSSTTAYIQLSSLTSEDSAVYYCAYWDLDYWGQGTTLTVSS VL: not shown",0.000987 s⁻¹
6,"LK-RB1-21 (antibody, human IgG4 S228P, kappa, V domains shown) VH: QVQLQQPGAELVKPGASVKMSCKASGYIFTDYWTTWVKQRPGQGLEWIGDIYPVSGSTNYNEKFKNKATLTVDTSSSTAYMQLSSLTSEDSAVYYCARALGRRYYFDYWGQGTTLTVSS VL: DIVMTQSHKFMSTSIGDRVSITCKASQDVSTAVAWCQQKPGQSPKSLIYSASYRYTGIPDRFTGSGSGTDFTFTISSVQAEDLAVYYCQQHYTNPVTFGTGTKLELKR",4.02e-05 s⁻¹
7,"LK-RB1-17 (antibody, human IgG4 S228P, kappa, V domains shown) VH: QVQLQQPGAELVKPGASVKLSCEASGYTFTNYWIHWVKQRPGRGLEWIGRIAPNSGGTKYNEKFKTRATLTVDKASTTAYMQLSSLTSEDSAVYYCARLDGSPYYFDYWGQGTTLTVSS VL: DIVMTQSQKFMSTSIGDRVSVTCKASQNVDTNVAWYQQKPGQSPKALIYSASYRYSGIPDRFTGSGSGTDFTLTISNVQSEDLAEYFCQQYNSYPYTFGGGTKLEIKR",0.000312 s⁻¹
8,"LK-RB1-8 (antibody, human IgG4 S228P, kappa, V domains shown) VH: QVQLQQSGAELVRPGTSVKVSCKASGYAFSNYLIEWVKQRPGQGLEWIGVINPGSDGSTYNEKFKGKATLTADKSSNTAYMQLSSLTSEDSAVYFCARGDYGRSYGMDYWGQGTSVTVSS VL: DIVMTQSQKFMSTTVGDRVSITCKASQNVGTAVVWYQQKPGQSPKLLIYSASNRYTGVPDRFTGSGSGTDFTLTISNMQSEDLADYFCQQYSSYMYTFGGGTKLEIKR",0.000218 s⁻¹
9,"LK-RB1-14 (antibody, human IgG4 S228P, kappa, V domains shown) VH: QVTLKESGPGILKPSQTLSLTCSFSGFSLSTSGMGVGWIRQPSGKGLEWLAHIWWDDDKYYNPSLKSQLTISKDTSRNQVFLKITSVDTADTATYYCARTELGRGDSWGQGTSVTVSS VL: DILLTQSPAILSVSPGERVSFSCRASQSIGTSIHWYQQRTNGSPRLLIKYASESISGIPSRFSGSGSGTDFTLSINSVESEDIADYYCQQSYSWPYTFGGGTKLEIKR",0.00131 s⁻¹
10,"LK-RB1-15 (antibody, human IgG4 S228P, kappa, V domains shown) VH: QVTLKESGPGIVKPSQTLSLTCSFSGFSLSISGTGIGWIRQPSGKGLEWLAHIWWDDDKYYNPSLKSQVTISKDTSTKQVFLNITSVDTADTATYYCTRTELGRGDFWGQGTSVTVSS VL: DILLTQSPAILSVSPGDRVSFSCRASQSIGTNIHWYQRRTNGSPRLLIKYGSESISGIPSRFSGSGTGTDFTLTINSVESEDIADYYCQQSYSWPYTFGGGTKLEIKR",0.000103 s⁻¹
11,"LK-RB1-34 (antibody, human IgG4 S228P, kappa, V domains shown) VH: QVQLQQSGAELVKPGASVKLSCKASGYTFTEYTIHWVKQRSGQGLEWIGWFYPGSDSIKYNEKFKDKATLTADKSSSTVYMELSRLTSEDSAVYFCSRHEGPYFTSQYYFDYWGQGTTLTVSS VL: DILLTQSPAILSVSPGERVSFSCRASRYIGTSIHWYQQRTNGSPRLLIKYASESISGIPSRFSGSGSGTDFTLSINSVESEDIADYYCQQSNTWPLTFGAGTKLELKR",0.000222 s⁻¹
12,"LK-RB1-37 (antibody, human IgG4 S228P, kappa, V domains shown) VH: QVQLQQPGAELVKPGASVKLSCKASGYTFTSYWMHWVKQRPGRGPEWIGRIDPNSGYARYNEKFKNKATLTADKPSSTADMHLSSLTSEDSAVYYCTRSFITTAEWFFDVWGTGTTVTVSS VL: DILLTQSPAILSVSPGERVSFSCRASQSIGTSIHWYQQRRNGSPRLLIKYTSESISGIPSRFSGSGSGTDFTLSINSVESEDIADYYCQQSNSWPHTFGGGTKLELKR",3.91e-05 s⁻¹
13,"LK-RB1-18 (antibody, human IgG4 S228P, kappa, V domains shown) VH: QVQLKESGPGLVAPSQSLSITCTVSGFSLTNSGVTWIRQPPGKGLEWLGVIWGDGSTNYHSALISRLSISKDNSKSQVFLKLNSLQTDDTATYYCAKPHWDYYNMDYWGQGTSVTVSS VL: DIQMTQTPSSLSASLGDRVTISCRASQDISNYLNWYQQKPDGTVKLLIYFTSRLHSGVPSRFSGSGSGTDYSLTISNLEQEDFATYFCQQGITLPLTFGAGTKLELKR",8.15e-05 s⁻¹
14,"LK-RB1-19 (antibody, human IgG4 S228P, kappa, V domains shown) VH: QVQLKESGPGLVAPSQNLSITCTVSGFSLTSYGVSWVRQPPGKGLEWLGIIWGDGNTDYHSALISRLSIRKDNSKSQVFLKLNSLKSDDTATYYCAKPHWEYYTMDYWGQGTSVTVSS VL: DIQMTQTTSSLSASLGDRVTISCRASQDISNFLNWYQQKPDGTVKLLIYSTSRLHSGVPSRFSGSGSGTDYSLTIANLEQEDVATYFCQQGNTLPLTFGAGTKLELKR",4.78e-05 s⁻¹
15,"LK-RB1-26 (antibody, human IgG4 S228P, kappa, V domains shown) VH: QVQLKESGPGLVAPSQSLSITCTVSGFSLTSYGVSWVRQPPGKGLEWLGIIWGDGSTNYHSALISRLSISKDNSKSQVFLKLNSLQTDDTATYYCAKPNWDYYAMDYWGQGTSVTVSS VL: DIQMTQTTSSLSASLGDRVTISCRASQDISNFLNWYQQKPDGTFKLLISYTSTLHSGVPSRFSGSGSGTDYSLTISNLEQEDVATYFCQQGNTLPLTFGAGTKLALKR",0.000155 s⁻¹
16,"LK-RB1-22 (antibody, human IgG4 S228P, kappa, V domains shown) VH: QVQLKESGPGLVAPSQSLSITCTVSGFSLTSYGVSWVRQPPGKGLEWLGIIWGDGNTNYHSALTSRLSISKDNSKSQVFLKLNSLRTDDTATYYCAKPHWDHYSMDYWGQGTSVTVSS VL: DIQMTQTTSSLSASLGDRVTISCRASQDISNFLNWYQQKPDGTVKLLIYYTSRLHSGAPSRFSGSGSGTDYSLTISNLDQEDIATYFCQQGNTLPLTFGAGTKLELKR",0.000416 s⁻¹
17,"LK-RB1-30 (antibody, human IgG4 S228P, kappa, V domains shown) VH: QVQLKESGPGLVAPSQSLSITCTVSGFSLTSYGVSWIRQPPGKGLEWLGVIWGDGNTNYHSALISRLSISKDNSKSQVFLKLNSLQTDDTATYYCAKPSWDYYAMDYWGQGTSVTVSS VL: VIQMTQTTSSLSASLGDRVTISCRASQDISNYVNWYQQRPDGTVKLLISYTSRLHSGVPSRFSGSGSGTDYSLTITNLEQEDIATYFCQQGITLPCTFGGGTKLEINR",6.05e-05 s⁻¹
18,"LK-RB1-20 (antibody, human IgG4 S228P, kappa) heavy: not shown light: DIQMNQSPSSLSASLGDTITITCHASQNIDFWLSWYQQKPGNIPKLLIYKASNLHTGVPSRFSGSGSGTGFTLTISSLQPEDIATYYCQQGQSYPLTFGAGTKLELKRTVAAPSVFIFPPSDEQLKSGTASVVCLLNNFYPREAKVQWKVDNALQSGNSQESVTEQDSKDSTYSLSSTLTLSKADYEKHKVYACEVTHQGLSSPVTKSFNRGEC",0.000141 s⁻¹
19,"LK-RB1-35 (antibody, human IgG4 S228P, kappa, V domains shown) VH: DVQLQESGPGLEKPSQSLSLTCSVTGYSITRGYQWNWIRQFPGNKLEWMGYISYDGSNNYNPSLKNRISITRDASKNQFFLKLNSVTTEDTATYYCARRSYNSIDYWGQGTTLTVSS VL: DIVLTQSPATLSVTPGDSVSLSCRASQSISSNLHWYQQKSHESPRLLIKYASQSISGIPSRFSGSGSGTDFTLSINSVETEDFGMYFCQQSNSWPLTFGAGTKLELKR",0.00116 s⁻¹
20,"LK-RB1-38 (antibody, human IgG4 S228P, kappa, V domains shown) VH: DVQLQESGPGLVQPSQSLSLTCSVTGYSITSGYQWNWIRQLPGNKLEWMAYISFDGSNNYNPSLKNRISITRDTSKNQFFLKLKSVTTEDTATYYCARRDYDGVAYWGQGTLVTVSA VL: EIVLTQSPATLSVTPGDRVSLSCRASQNISNYLHWYQQKSHGSPRLIIKYASQSISGIPSRFSGSGSGTDFTLSINSVETEDFGMYFCQQSNSWPLTFGAGTKLELKR",0.000532 s⁻¹
21,"LK-RB1-36 (antibody, human IgG4 S228P, kappa, V domains shown) VH: DVQLQESGPGLEKPSQSLSLTCSVTGYSITRGYQWNWIRQFPGNKLEWMGYISYDGSNNYNPSLKNRISIIRDTSKNQFFLKLNSVTTEDTATYYCARRSYNSIDYWGQGTTLTVSS VL: DIVLTQSPATLSVTPGDSVSLSCRASQSISNNLHWYQQKSHESPRLLIKYASQSISGIPSRFSGSGSGTDFTLSINSVETEDFGMYFCQQSNSWPLTFGAGTKLELKR",0.00121 s⁻¹
22,"LK-RB1-25 (antibody, human IgG4 S228P, kappa, V domains shown) VH: QIQLVQSGPELKKPGETVKISCKASGYTFTSYGMNWMKQAPGEGLKWMGWINTYSGVPTYADDFKGRFAFSLETSATTVYLQINNLKNEDKATYFCARRGRDSVVGHFDVWGTGTTVTVSS VL: DIVMTQSHKFMSTSVGDRVSITCKASQDVNTAVAWYQQKPGQSPKLLIYWASTRHTGVPDRFTGSGSGTDFTLTISSVQAEDLALYYCQQHYTIPFTFGSGTKLEIKR",9.03e-05 s⁻¹
23,"LK-RB1-32 (antibody, human IgG4 S228P, kappa, V domains shown) VH: QVQLQQSGAELAKPGASVKLSCTASGYTFTTYLMHWVKQRPAQGLEWIGYINPSNDFTKYNQKFKDKATLTADTSSSTAYMQLNSLTFEDSAVYYCARNSDYDPSYWGQGTTLTVSS VL: DIQMTQSPASLSVSVGETVTITCRASENIYSSLAWYQQKQGKSPQLLVYAATNLADGVPSRFSGSGSGTQYSLKINSLQSEDFGNYYCQHFWGTWAFGGGTKLEIKR",3.66e-05 s⁻¹
